Like-named read-outs stand apart in the source and are kept apart here. No end group written: not given here.
Experiments:
[1] = target: T1, AP33 mimotope peptide H6; experiment: peptide ELISA: biotinylated peptide on streptavidin plate, COS7 supernatant, anti-human kappa HRP, OD 655 nm
T1 construct: captured on streptavidin plates; also called mimotope H6; H6 peptide
T1 peptide: VELRNLGGTWRPGSGK-biotin

[2] = target: T2, Peptide D3; experiment: as above
T2 construct: member of the group m28

[3] = target: T3, E2 peptide B1 (Hepatitis C virus, genotype 2b (Table 5)); experiment: as above
[4] = target: T1, AP33 mimotope peptide H6; experiment: as above
[5] = target: T2, Peptide D3; experiment: as above; remark: listed apart in the source
[6] = target: T3, E2 peptide B1; experiment: as above; remark: listed apart in the source
[7] = target: T1, AP33 mimotope peptide H6; experiment: as above
[8] = target: T1, AP33 mimotope peptide H6; experiment: as above
[9] = target: T1, AP33 mimotope peptide H6; experiment: as above
[10] = target: HCV E1E2 glycoproteins, isolate 2A2.4 (on HCVpp) (Hepatitis C virus genotype 2 (2A2.4)); experiment: cell-based or functional assay
[11] = target: HCV E1E2 glycoproteins, isolate 6.5.8 (on HCVpp) (Hepatitis C virus genotype 6 (6.5.8)); experiment: cell-based or functional assay
[12] = target: HCV E1E2 glycoproteins, genotype 2a isolate JFH1 (on HCVpp) (Hepatitis C virus genotype 2a (JFH1), UniProt Q99IB8 192-383; Q99IB8 384-750); experiment: cell-based or functional assay
[13] = target: HCV E1E2 glycoproteins, isolate 4.21.16 (on HCVpp) (Hepatitis C virus genotype 4 (4.21.16)); experiment: cell-based or functional assay
[14] = target: HCV E1E2 glycoproteins, genotype 3a isolate F4/2-35 (on HCVpp) (Hepatitis C virus genotype 3a (F4/2-35)); experiment: cell-based or functional assay
[15] = target: T4, E2 peptide C2 (Hepatitis C virus, genotype 1a (Table 5), not fully specified (residue 16, C-terminus)); experiment: peptide ELISA: biotinylated peptide on streptavidin plate, COS7 supernatant, normalised as percentage of H6 binding
T4 peptide: QLINTNGSWHVNGSGK

[16] = target: HCV E1E2 glycoproteins, isolate 5.15.11 (on HCVpp) (Hepatitis C virus genotype 5 (5.15.11)); experiment: cell-based or functional assay
[17] = target: HCV E1E2 glycoproteins, isolate 1A20.8 (on HCVpp) (Hepatitis C virus genotype 1 (1A20.8)); experiment: cell-based or functional assay
[18] = target: HCV E1E2 glycoproteins, isolate 1B5.23 (on HCVpp) (Hepatitis C virus genotype 1 (1B5.23)); experiment: cell-based or functional assay
[19] = target: HCV E1E2 glycoproteins, isolate 2B1.1 (on HCVpp) (Hepatitis C virus genotype 2 (2B1.1)); experiment: cell-based or functional assay
[20] = target: T2, Peptide D3
[21] = target: T3, E2 peptide B1; experiment: peptide ELISA, COS7 supernatants, normalized to H6 binding

Sequence of HCV E1E2 glycoproteins, genotype 2a isolate JFH1 (on HCVpp) (Q99IB8 192-383 limits assumed, chain 1 of 2): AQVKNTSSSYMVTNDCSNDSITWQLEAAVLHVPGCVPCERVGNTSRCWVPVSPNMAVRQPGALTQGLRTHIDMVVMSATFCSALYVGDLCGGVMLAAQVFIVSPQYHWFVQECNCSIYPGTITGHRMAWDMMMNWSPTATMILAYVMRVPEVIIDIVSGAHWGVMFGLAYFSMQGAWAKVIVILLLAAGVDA
Sequence of HCV E1E2 glycoproteins, genotype 2a isolate JFH1 (on HCVpp) (Q99IB8 384-750 limits assumed, chain 2 of 2): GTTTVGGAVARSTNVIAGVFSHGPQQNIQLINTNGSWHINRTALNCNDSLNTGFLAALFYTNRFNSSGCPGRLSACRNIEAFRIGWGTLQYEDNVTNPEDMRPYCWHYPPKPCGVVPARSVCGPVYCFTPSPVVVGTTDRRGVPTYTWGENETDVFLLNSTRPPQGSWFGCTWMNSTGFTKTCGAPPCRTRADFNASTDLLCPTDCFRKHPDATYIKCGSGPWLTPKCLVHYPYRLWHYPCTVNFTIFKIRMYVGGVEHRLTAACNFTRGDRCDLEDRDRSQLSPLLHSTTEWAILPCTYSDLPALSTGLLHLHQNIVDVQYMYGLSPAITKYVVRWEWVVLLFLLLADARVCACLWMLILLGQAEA

B1: AP33 RH-E/RK2bc (antibody, V domains shown)
VH: QVQLQESGPGLVKPSETLSLTCTVSGDSITSGYWNWIRQPPGRALEYMGYISYSGSTYYNLSLRSRVTISRDTSKNQYSLRLSSVTAADTAMYYCALITTTTYAMDYWGQGTTVTVS
VL: EIVLTQSPSSLSASVGDRVTITCRASESVDGYGNSFLHWFQQKPGKAPKLLIYLASNLNSGVPSRFSGSGSRTDFTLTISSLQPEDFATYYCQQNNVDPWTFGQGTKLEIK
notes: COS7 supernatant
- binding result [1]: binds
- binding result [2]: binds
- binding result [3]: no binding (tested: about 800 ng/ml)

B2: humanized AP33 antibody RH-G/RK2bc (antibody, V domains shown)
VH: QVQLQESGPGLVKPSETLSLTCTVSGDSITSGYWNWIRQPPGRALEYMGYISYSGSTYYNLSLRSRITISRDTSKNQFSLRLSSVTAADTAMYYCALITTTTYAMDYWGQGTTVTVS
VL: EIVLTQSPSSLSASVGDRVTITCRASESVDGYGNSFLHWFQQKPGKAPKLLIYLASNLNSGVPSRFSGSGSRTDFTLTISSLQPEDFATYYCQQNNVDPWTFGQGTKLEIK
- binding result [4]: binds
- binding result [5]: binds
- binding result [6]: no binding (tested: about 750 ng/ml)

B3: humanized AP33 antibody RHA/RK2bc (antibody, V domains shown)
VH: QVQLQESGPGLVKPSETLSLTCTVSGDSISSGYWNWIRQPPGRALEWIGYISYSGSTYYNLSLRSRVTISVDTSKNQFSLRLSSVTAADTAMYYCARITTTTYAMDYWGQGTTVTVS
VL: EIVLTQSPSSLSASVGDRVTITCRASESVDGYGNSFLHWFQQKPGKAPKLLIYLASNLNSGVPSRFSGSGSRTDFTLTISSLQPEDFATYYCQQNNVDPWTFGQGTKLEIK
notes: Human IgG1/kappa from vectors pG1D200 and pKN100, COS7 expression; also called AP33RHA/RK2bc
- binding result [7]: binds

B4: humanized AP33 antibody RHI/RK2bc (antibody, V domains shown)
VH: QVQLQESGPGLVKPSETLSLTCTVSGDSITSGYWNWIRKPPGRALEYMGYISYSGSTYYNLSLRSRITISRDTSKNQYSLRLSSVTAADTAMYYCALITTTTYAMDYWGQGTTVTVS
VL: EIVLTQSPSSLSASVGDRVTITCRASESVDGYGNSFLHWFQQKPGKAPKLLIYLASNLNSGVPSRFSGSGSRTDFTLTISSLQPEDFATYYCQQNNVDPWTFGQGTKLEIK
notes: RHI is RHb-h with Q39K; Human IgG1/kappa from vectors pG1D200 and pKN100, COS7 expression; also called RHI (Q39K)/RK2bc
- binding result [8]: binds

B5: humanized AP33 antibody RHb-h/RK2b (antibody, V domains shown)
VH: QVQLQESGPGLVKPSETLSLTCTVSGDSITSGYWNWIRQPPGRALEYMGYISYSGSTYYNLSLRSRITISRDTSKNQYSLRLSSVTAADTAMYYCALITTTTYAMDYWGQGTTVTVS
VL: EIVLTQSPSSLSASVGDRVTITCRASESVDGYGNSFLHWFQQKPGKAPKLLIYLASNLNSGVPSRFSGSGSGTDFTLTISSLQPEDFATYYCQQNNVDPWTFGQGTKLEIK
- EC50 (read off the curve) [9]: ~0.04 µg/mL
- IC50 of HCVpp infection (Huh-7, luciferase) [10]: 1.7 µg/mL
- IC90 of HCVpp infection (Huh-7, luciferase) [10]: 20 µg/mL
- IC50 of HCVpp infection (Huh-7, luciferase) [11]: < 0.41 µg/mL
- IC90 of HCVpp infection (Huh-7, luciferase) [11]: 3.7 µg/mL
- IC50 of HCVpp infection (Huh-7, luciferase) [12]: 2.7 µg/mL
- IC90 of HCVpp infection (Huh-7, luciferase) [12]: 22.1 µg/mL
- IC50 of HCVpp infection (Huh-7, luciferase) [13]: 0.33 µg/mL
- IC90 of HCVpp infection (Huh-7, luciferase) [13]: 3.64 µg/mL
- IC50 of HCVpp infection (Huh-7, luciferase) [14]: 1.15 µg/mL
- IC90 of HCVpp infection (Huh-7, luciferase) [14]: 8.3 µg/mL

B6: chimeric AP33 antibody (Vh/Vl) (antibody, V domains shown)
VH: EVQLQESGPSLVKPSQTLSLTCSVTGDSITSGYWNWIRKFPGNKLEYMGYISYSGSTYYNLSLRSRISITRDTSKNQYYLQLNSVTTEDTATYYCALITTTTYAMDYWGQGTSVTVS
VL: NIVLTQSPVSLAVSLGQRATISCRASESVDGYGNSFLHWFQQKPGQPPKLLIYLASNLNSGVPARFSGSGSRTDFTLTIDPVEADDAATYYCQQNNVDPWTFGGGTKLEIK
notes: also called Vh/V1; chimeric antibody
- binding result [7]: binds
- binding result [15]: binds
- IC50 of HCVpp infection (Huh-7, luciferase) [10]: 0.88 µg/mL
- IC90 of HCVpp infection (Huh-7, luciferase) [10]: 6.67 µg/mL
- IC50 of HCVpp infection (Huh-7, luciferase) [11]: < 0.137 µg/mL
- IC90 of HCVpp infection (Huh-7, luciferase) [11]: 3.7 µg/mL
- IC50 of HCVpp infection (Huh-7, luciferase) [12]: 1.1 µg/mL
- IC90 of HCVpp infection (Huh-7, luciferase) [12]: 9.31 µg/mL
- IC50 of HCVpp infection (Huh-7, luciferase) [13]: < 0.137 µg/mL
- IC90 of HCVpp infection (Huh-7, luciferase) [13]: 0.83 µg/mL
- IC50 of HCVpp infection (Huh-7, luciferase) [14]: 0.48 µg/mL
- IC90 of HCVpp infection (Huh-7, luciferase) [14]: 3.2 µg/mL
- IC50 of HCVpp infection (Huh-7, luciferase) [16]: 0.088 µg/mL
- IC90 of HCVpp infection (Huh-7, luciferase) [16]: 1.11 µg/mL
- IC50 of HCVpp infection (Huh-7, luciferase) [17]: 1.1 µg/mL
- IC90 of HCVpp infection (Huh-7, luciferase) [17]: 11.5 µg/mL
- IC50 of HCVpp infection (Huh-7, luciferase) [18]: 1.15 µg/mL
- IC90 of HCVpp infection (Huh-7, luciferase) [18]: 11 µg/mL
- IC50 of HCVpp infection (Huh-7, luciferase) [19]: 3 µg/mL
- IC90 of HCVpp infection (Huh-7, luciferase) [19]: > 15 µg/mL

B7: chimeric AP33 heavy chain mutant Y47F with chimeric light chain Vl (antibody, V domains shown)
VH: EVQLQESGPSLVKPSQTLSLTCSVTGDSITSGYWNWIRKFPGNKLEFMGYISYSGSTYYNLSLRSRISITRDTSKNQYYLQLNSVTTEDTATYYCALITTTTYAMDYWGQGTSVTVS
VL: NIVLTQSPVSLAVSLGQRATISCRASESVDGYGNSFLHWFQQKPGQPPKLLIYLASNLNSGVPARFSGSGSRTDFTLTIDPVEADDAATYYCQQNNVDPWTFGGGTKLEIK
notes: also called AP33 Y47F
- EC50 (read off the curve) [20]: ~0.02 µg/mL
- binding result [21]: binds
- binding result [15]: binds

B8: chimeric AP33 heavy chain mutant Y47W with chimeric light chain Vl (antibody, V domains shown)
VH: EVQLQESGPSLVKPSQTLSLTCSVTGDSITSGYWNWIRKFPGNKLEWMGYISYSGSTYYNLSLRSRISITRDTSKNQYYLQLNSVTTEDTATYYCALITTTTYAMDYWGQGTSVTVS
VL: NIVLTQSPVSLAVSLGQRATISCRASESVDGYGNSFLHWFQQKPGQPPKLLIYLASNLNSGVPARFSGSGSRTDFTLTIDPVEADDAATYYCQQNNVDPWTFGGGTKLEIK
notes: also called AP33 Y47W
- EC50 (read off the curve) [20]: ~0.03 µg/mL
- binding result [21]: binds
- binding result [15]: binds

B9: RHA/Vl (humanized heavy chain RHA with chimeric light chain) (antibody, V domains shown)
VH: QVQLQESGPGLVKPSETLSLTCTVSGDSISSGYWNWIRQPPGRALEWIGYISYSGSTYYNLSLRSRVTISVDTSKNQFSLRLSSVTAADTAMYYCARITTTTYAMDYWGQGTTVTVS
VL: NIVLTQSPVSLAVSLGQRATISCRASESVDGYGNSFLHWFQQKPGQPPKLLIYLASNLNSGVPARFSGSGSRTDFTLTIDPVEADDAATYYCQQNNVDPWTFGGGTKLEIK
notes: Human IgG1/kappa from vectors pG1D200 and pKN100, COS7 expression
- binding result [7]: binds

B10: RHI/Vl (humanized heavy chain RHI with chimeric light chain) (antibody, V domains shown)
VH: QVQLQESGPGLVKPSETLSLTCTVSGDSITSGYWNWIRKPPGRALEYMGYISYSGSTYYNLSLRSRITISRDTSKNQYSLRLSSVTAADTAMYYCALITTTTYAMDYWGQGTTVTVS
VL: NIVLTQSPVSLAVSLGQRATISCRASESVDGYGNSFLHWFQQKPGQPPKLLIYLASNLNSGVPARFSGSGSRTDFTLTIDPVEADDAATYYCQQNNVDPWTFGGGTKLEIK
notes: as for B9
- binding result [8]: binds

B11: Vh/RK2bc (antibody, V domains shown)
VH: EVQLQESGPSLVKPSQTLSLTCSVTGDSITSGYWNWIRKFPGNKLEYMGYISYSGSTYYNLSLRSRISITRDTSKNQYYLQLNSVTTEDTATYYCALITTTTYAMDYWGQGTSVTVS
VL: EIVLTQSPSSLSASVGDRVTITCRASESVDGYGNSFLHWFQQKPGKAPKLLIYLASNLNSGVPSRFSGSGSRTDFTLTISSLQPEDFATYYCQQNNVDPWTFGQGTKLEIK
notes: COS7 supernatant; also called chimeric AP33 heavy chain Vh with humanized light chain RK2bc
- binding result [7]: binds

Source: patent US20120027722A1 (MEDICAL RESEARCH COUNCIL, published 2012)
